Columns and labels:
Experiment in all cases: peptide or protein array
[1] = target: Leucine-rich repeat flightless-interacting protein 2 peptide (18-mer) (human)
[2] = target: LIM homology domain– and calponin homology domain–containing protein 1 peptide (18-mer) (human)
[3] = target: Drebrin peptide (18-mer) (human)
[4] = target: LIM domain only protein 7 peptide (18-mer) (human)
[5] = target: FH1/FH2 domain–containing protein 3 peptide (18-mer) (human)
[6] = target: Myosin-14 peptide (18-mer) (human)

## GST-tagged ARHGAP10L SH3 domain (domain or fragment)
[1]
  relative binding strength (% of the strongest interaction of this SH3 domain): 65%
[2]
  relative binding strength (% of the strongest interaction of this SH3 domain): 11%
[3]
  relative binding strength (% of the strongest interaction of this SH3 domain): 68%
[4]
  relative binding strength (% of the strongest interaction of this SH3 domain): 12%
[5]
  relative binding strength (% of the strongest interaction of this SH3 domain): 53%
[6]
  relative binding strength (% of the strongest interaction of this SH3 domain): 100%

From article PMC3553496
